Publication doi:10.1101/2021.08.21.457230

Biological target: T1, human SLC44A1 (human), Q8WWI5
T1 chain: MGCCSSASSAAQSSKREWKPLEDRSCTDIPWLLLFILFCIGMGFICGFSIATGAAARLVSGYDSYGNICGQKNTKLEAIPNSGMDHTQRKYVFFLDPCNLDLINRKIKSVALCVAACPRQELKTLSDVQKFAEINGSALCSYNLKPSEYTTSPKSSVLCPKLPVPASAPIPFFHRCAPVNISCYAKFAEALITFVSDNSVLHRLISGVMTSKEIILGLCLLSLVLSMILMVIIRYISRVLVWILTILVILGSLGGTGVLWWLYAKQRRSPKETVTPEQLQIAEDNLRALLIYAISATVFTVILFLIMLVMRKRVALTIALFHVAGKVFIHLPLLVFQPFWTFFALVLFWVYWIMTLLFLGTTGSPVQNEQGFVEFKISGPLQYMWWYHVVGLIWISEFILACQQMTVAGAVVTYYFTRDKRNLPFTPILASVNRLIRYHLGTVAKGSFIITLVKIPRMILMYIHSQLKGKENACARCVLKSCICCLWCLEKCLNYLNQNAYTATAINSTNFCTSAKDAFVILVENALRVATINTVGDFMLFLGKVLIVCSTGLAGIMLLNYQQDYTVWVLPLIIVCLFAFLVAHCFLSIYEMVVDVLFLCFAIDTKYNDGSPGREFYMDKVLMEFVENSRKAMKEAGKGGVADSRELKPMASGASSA
Assay: cryo-EM structure
Conditions: remark: other sources report otherwise

stoichiometry N: 2
B1: human SLC44A1, Q8WWI5 1-657 (natural protein)
chain: T1 chain
